Measurements from patent US9611295B2, “Treatment of IL-17 mediated disease by blocking SEFIR-SEFIR interactions” (THE CLEVELAND CLINIC FOUNDATION, priority 2011, dated 2017).

Target: T1, Act1-IL-17RA interaction (Homo sapiens, UniProt Q96F46)
T1 construct: expressed in transfected cells; host or cells: HeLa
T1 sequence (Q96F46 33-866): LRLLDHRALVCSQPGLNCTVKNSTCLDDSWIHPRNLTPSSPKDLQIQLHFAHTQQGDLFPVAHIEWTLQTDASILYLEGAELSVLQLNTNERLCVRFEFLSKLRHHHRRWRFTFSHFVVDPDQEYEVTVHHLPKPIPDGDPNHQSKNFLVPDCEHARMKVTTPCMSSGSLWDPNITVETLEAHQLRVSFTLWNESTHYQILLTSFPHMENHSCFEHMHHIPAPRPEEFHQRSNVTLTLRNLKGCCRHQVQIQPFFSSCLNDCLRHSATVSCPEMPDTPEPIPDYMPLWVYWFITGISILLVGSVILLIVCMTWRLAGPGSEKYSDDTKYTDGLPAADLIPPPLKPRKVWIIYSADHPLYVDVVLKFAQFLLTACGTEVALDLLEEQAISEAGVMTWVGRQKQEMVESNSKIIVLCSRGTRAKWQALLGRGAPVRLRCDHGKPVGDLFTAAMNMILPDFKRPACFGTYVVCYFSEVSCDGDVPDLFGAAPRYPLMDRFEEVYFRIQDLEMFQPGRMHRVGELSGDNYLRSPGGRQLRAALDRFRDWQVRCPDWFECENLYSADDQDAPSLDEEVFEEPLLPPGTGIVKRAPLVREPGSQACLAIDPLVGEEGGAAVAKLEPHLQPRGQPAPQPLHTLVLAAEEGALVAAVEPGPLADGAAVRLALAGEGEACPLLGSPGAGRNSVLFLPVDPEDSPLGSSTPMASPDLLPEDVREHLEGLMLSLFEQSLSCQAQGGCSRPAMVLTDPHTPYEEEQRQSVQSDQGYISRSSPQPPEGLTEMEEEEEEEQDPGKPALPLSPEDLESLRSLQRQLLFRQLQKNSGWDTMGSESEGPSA
Assay: Co-immunoprecipitation of Act1 and IL-17RA in transfected HeLa cells
Format: cell-based, mouse Act1, human IL-17RA
Conditions: peptides 200 μM, 24 hours
Protocol: FIG. 4 provides data showing that a cell-permeable CC′ loop decoy peptide disrupts the interaction between Act1 and IL-17RA and inhibits IL-17R and IL-25R signaling. FIG. 4A provides sequences of Antennapedia homeodomain (Antp) (SEQ ID NO: 11)and decoy peptides (SEQ ID NOS 23-25 and 17, respectively, in order of appearance) with the Antp sequence underlined. FIG. 4B provides flow cytometry results based on experiments in which MEFs expressing IL-17RB were incubated for 2 or 24 hours with the indicated FITC-tagged peptides (200 μM) and were then analyzed by flow cytometry. […] The percentages of FITC-positive cells in the treated samples are shown. […] FIG. 4D provides Western blot results of experiments in which MEFs expressing IL-17RB were incubated with the indicated peptides (200 μM) for 24 hours after which they were treated with IL-17 or IL-25 and then analyzed by Western blotting with the indicated antibodies. […] The abundances of Cxcl1 and Il13 mRNAs were then measured by real-time RT-PCR. […]
Decoy peptides are based on surface-exposed regions of the primary sequence of a protein to mimic a putative interaction interface. […] These decoy peptides were also tagged at their C-termini with fluorescein isothiocyanate (FITC) to enable their cell-penetrating efficiency to be evaluated by flow cytometric sanalysis. […]

Sequence: DRQIKIWFQNRRMKWKKLDEDEHGLHTKY [CC′ loop decoy peptide]
- inhibition of the Act1-IL-17RA interaction (co-IP): more efficiently inhibited
